Where no end group is shown, it is not given here.
Experiments:
[1] = target: human CD47-IgV-Domain-hIg fusion protein (human, UniProt Q08722 19-141); test: FACS; competition with human SIRPα on CHO cells
[2] = target: T1, mouse CD47-IgV-Domain-hIg fusion protein (mouse, UniProt Q61735 19-140); test: FACS; competition with mouse SIRPα on CHO cells
T1 chain: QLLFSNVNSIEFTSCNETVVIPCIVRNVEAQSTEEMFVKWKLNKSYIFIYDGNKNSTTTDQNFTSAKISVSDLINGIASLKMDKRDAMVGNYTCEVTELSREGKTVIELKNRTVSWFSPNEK

Chain of human CD47-IgV-Domain-hIg fusion protein (Q08722 19-141): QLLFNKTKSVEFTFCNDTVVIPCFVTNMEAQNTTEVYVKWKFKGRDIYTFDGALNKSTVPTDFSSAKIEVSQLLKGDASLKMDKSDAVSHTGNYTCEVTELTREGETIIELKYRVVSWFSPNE

IC50 [1]: 12.1 µM
IC50 [2]: 18.2 µM
B1: pep-20-D12 (peptide)
chain: AWSATWSNYWRH
modifications: also: three D-amino acid residues substituted at N- and C-terminal, places not given here

Reference: article PMC7537338 (2020)
